Reference: publication PMC8809517, “Cofactor-independent RNA editing by a synthetic S-type PPR protein”
Positions count from the first letter of the chain named.

Key:
Test in all cases: high-throughput RNA pulldown from lysate on Ni-NTA beads; HRP: 50 mM Tris pH 8, 150 mM NaCl, 1 mM beta-mercaptoethanol, 50 ug/ml BSA, 3 ug/ml yeast RNA, 0.5% heparin; ITC and FP: Tris pH 8, 200 mM KCl, 5% glycerol; MST: 50 mM Tris pH 8, 200 mM NaCl, 1 mM DTT, BSA, heparin, 0.05% Tween 20
Settings in all cases: tags: N-terminal His-eGFP
[1] = target: T1, GFP-9S library array, motif 4 ND N98Q;D124P (synthetic construct, N98Q;D124P)
T1 chain: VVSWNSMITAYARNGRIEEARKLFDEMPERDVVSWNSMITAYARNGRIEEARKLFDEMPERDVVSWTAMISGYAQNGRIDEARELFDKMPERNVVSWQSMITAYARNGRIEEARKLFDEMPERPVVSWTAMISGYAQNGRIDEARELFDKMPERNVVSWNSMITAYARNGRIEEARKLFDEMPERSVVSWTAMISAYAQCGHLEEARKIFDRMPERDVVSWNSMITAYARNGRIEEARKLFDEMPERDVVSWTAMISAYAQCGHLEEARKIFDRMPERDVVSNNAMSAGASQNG

[2] = target: T2, GFP-9S library array, motif 4 ND N98M;D124Y (synthetic construct, N98M;D124Y)
T2 chain: T1 chain with Q98M, P124Y

[3] = target: T3, GFP-9S library array, motif 4 ND N98K;D124T (synthetic construct, N98K;D124T)
T3 chain: T1 chain with Q98K, P124T

[4] = target: T4, GFP-9S library array, motif 4 ND N98R;D124K (synthetic construct, N98R;D124K)
T4 chain: T1 chain with Q98R, P124K

[5] = target: T5, GFP-9S library array, motif 4 ND N98G;D124Q (synthetic construct, N98G;D124Q)
T5 chain: T1 chain with Q98G, P124Q

Binder: AUUACACGUGA (ssRNA) [Cy5-rpoA]
- Kd ([1]; label: 5' Cy5): 135 nM
- Kd ([2]; label: 5' Cy5): 216 nM
- Kd ([3]; label: 5' Cy5): 76.8 nM
- Kd ([4]; label: 5' Cy5): 136 nM
- Kd ([5]; label: 5' Cy5): 96.6 nM

Binder: AUUAAACGUGA (ssRNA) [IR-rpoA-A]
- Kd ([1]; label: 5' IRDye 800CW): 259 nM
- Kd ([2]; label: 5' IRDye 800CW): 488 nM
- Kd ([3]; label: 5' IRDye 800CW): 211 nM
- Kd ([4]; label: 5' IRDye 800CW): 420 nM
- Kd ([5]; label: 5' IRDye 800CW): 150 nM

Binder: AUUAUACGUGA (ssRNA) [IR-rpoA-U]
- Kd ([1]; label: 5' IRDye 800CW): 219 nM
- Kd ([2]; label: 5' IRDye 800CW): 682 nM
- Kd ([3]; label: 5' IRDye 800CW): 212 nM
- Kd ([4]; label: 5' IRDye 800CW): 202 nM
- Kd ([5]; label: 5' IRDye 800CW): 142 nM

Binder: AUUAGACGUGA (ssRNA) [Cy5-rpoA-G]
- Kd ([1]; label: 5' Cy5): 138 nM
- Kd ([2]; label: 5' Cy5): 167 nM
- Kd ([3]; label: 5' Cy5): 83.6 nM
- Kd ([4]; label: 5' Cy5): 161 nM
- Kd ([5]; label: 5' Cy5): 109 nM
